Data as given in JP2004000228A.

Target: anti-Fas monoclonal antibody HFE7A produced by mouse-mouse hybridoma HFE7A (FERM BP-5828)
Assay: peptide competition: 200 μg peptide preincubated with 0.25 μg HFE7A, then flow cytometry on WR19L12a cells

| Binder | inhibition of the binding of HFE7A to WR19L12a cells [%] |
| --- | --- |
| KCRCKPNFFC [P110] | 60 |
| EINCTRTQNT [P100] | 50 |
